# According to US20080119406A1:
# What was measured:
# [1] = target: unidentified caltrin binding site on ST2 osteoblast-like cells; experiment: FACS-based binding, anti-caltrin and labelled anti-rabbit antibody
# [2] = target: unidentified caltrin binding site on COS-7 monkey kidney cells (monkey); experiment: as above
# [3] = target: unidentified caltrin receptor on primary mouse calvarial osteoblasts (mouse); experiment: competition curve: unlabelled caltrin against 10 ng 125I-caltrin on primary calvarial osteoblasts, 4 C, 2 h
# [4] = target: unidentified caltrin receptor on primary mouse calvarial osteoblasts (mouse); experiment: saturation binding of 125I-caltrin on 2×10^5 primary mouse calvarial osteoblasts, Scatchard analysis
Binder,shift in the mean fluorescence [1],shift in the mean fluorescence [2],Kd [3],binding sites per cell (Bmax) (binding sites per cell) [3],Kd [4],binding sites per cell (binding sites per cell) [4]
"recombinant caltrin (mouse, V5/His-tagged, secreted from baculovirus-infected Sf-9 cells) (ligand, not shown: small tags and cut ends) LICNSCEKSRDSRCTMPQSRCVAKPGESCSTVSHFVGTKHVYSKQMCSPQCKEKQLNTGKKLIYIMCCEKNLCNSF",75%,80%,2.2 nM,14000,–,–
"^125I-caltrin (radiolabelled recombinant caltrin) (ligand, not shown: small tags and cut ends, 125I label by the lactoperoxidase method; labelled residues not stated) LICNSCEKSRDSRCTMPQSRCVAKPGESCSTVSHFVGTKHVYSKQMCSPQCKEKQLNTGKKLIYIMCCEKNLCNSF",–,–,–,–,1.2 nM,60000
